The text below walks through data of US20220016243A1 (published 2022).

The test addresses T1, TIGIT (T-cell immunoreceptor with Ig and ITIM domains), peripheral TIGIT receptors on patients' CD4+ T cells, … (human (patients), UniProt Q495A1 22-244).
T1 construct: whole, on cells; Endogenous receptor on patients' peripheral immune cells; Occupancy was measured ex vivo after dosing with tiragolumab
T1 sequence (looked up): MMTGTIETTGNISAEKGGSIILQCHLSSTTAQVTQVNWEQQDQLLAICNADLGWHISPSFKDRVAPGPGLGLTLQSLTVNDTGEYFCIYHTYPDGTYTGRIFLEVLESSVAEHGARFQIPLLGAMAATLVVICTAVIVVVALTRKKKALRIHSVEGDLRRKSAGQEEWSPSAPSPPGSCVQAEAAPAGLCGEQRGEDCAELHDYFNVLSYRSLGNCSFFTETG
In words: receptor occupancy on peripheral CD8+ T cells and NK cells of patients dosed at 2-1200 mg Q3W (Phase Ia, Study GO30103).

B1: tiragolumab (antibody, human IgG1, kappa, V domains shown)
VH: EVQLQQSGPGLVKPSQTLSLTCAISGDSVSSNSAAWNWIRQSPSRGLEWLGKTYYRFKWYSDYAVSVKGRITINPDTSKNQFSLQLNSVTPEDTAVFYCTRESTTYDLLAGPFDYWGQGTLVTVSS
VL: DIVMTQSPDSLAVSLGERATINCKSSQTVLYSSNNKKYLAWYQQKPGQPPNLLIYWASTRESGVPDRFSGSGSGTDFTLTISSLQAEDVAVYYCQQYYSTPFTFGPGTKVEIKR
notes: also called MTIG7192A; RG6058
B1: the binding result is listed as “binds”.
